Experimental data taken from publication PMC10684895, “The ELAVL3/MYCN positive feedback loop provides a therapeutic target for neuroendocrine prostate cancer”.

Target: GST-ELAVL3 (UniProt Q14576 1-367)
Assay: EMSA; 5 mM Mg2+; RNA-EMSA: 20 mM Tris-HCl (pH not stated), 100 mM NaCl, 5 mM MgCl2, 2 mM DTT, 37 C 1 h, 6% native gel at 4 C; pull-down: 50 pmol probe on beads, cell lysate, 4 C overnight
Settings: protein: recombinant; tags: N-terminal GST (pGEX-4T-1); label: 3'-biotin

Chain of GST-ELAVL3 (Q14576 whole entry): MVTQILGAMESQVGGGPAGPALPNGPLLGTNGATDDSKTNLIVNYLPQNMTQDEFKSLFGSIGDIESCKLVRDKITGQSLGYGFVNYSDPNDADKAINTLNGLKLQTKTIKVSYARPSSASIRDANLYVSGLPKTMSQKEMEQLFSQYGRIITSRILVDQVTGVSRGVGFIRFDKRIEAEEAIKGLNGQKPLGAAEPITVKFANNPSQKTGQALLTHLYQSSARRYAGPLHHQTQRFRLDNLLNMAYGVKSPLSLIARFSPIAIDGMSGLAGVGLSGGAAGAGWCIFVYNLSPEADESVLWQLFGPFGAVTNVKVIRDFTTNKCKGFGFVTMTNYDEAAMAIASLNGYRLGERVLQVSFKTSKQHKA

**Q.** Does UCCAUCCUAGACACUACCUCAGUCGACGUA (ssRNA) [RICTOR-3'UTR-F3-MUT] bind?
**A.** no binding

**Q.** Does CACUCUGCACAUCCUGAUCUCUCUCUCAGA (ssRNA) [MYCN-3'UTR-F1-MUT] bind?
**A.** no binding
